This test deals with SARS-CoV-2 spike (S) glycoprotein, artificially-constructed BA.2.75+R346T (SARS-CoV-2), P0DTC2. Briefly: cell-based or functional assay.

B1: mAb_v2130Vanderbilt_184_20220114_00112 (antibody, V domains shown)
VH: EVQLVESGGGLVKPGGSLRLSCAASGFTFRDVWMSWVRQAPGKGLEWVGRIKSKIDGGTTDYAAPVKGRFTISRDDSKNTLYLQMNSLKTEDTAVYYCTTAGSYYYDTVGPELPEGKFDYWGQGTLVTVSS
VL: not shown
Regarding B1, the pseudoviral neutralization IC50 is 0.674 µg/mL.
